Measured values from the DeepSol protein solubility set.

Assay: soluble on expression in E. coli; label from the status in PepcDB or PDB records

| Sequence | soluble on expression in E. coli |
| --- | --- |
| MAHHHHHHSLISNHFLRDLYAIIVDDVGRFKPSAILDVGCGTGTADYFILSAFPDISVDCIDPSPYMISIARKKLSKFGSRVRAELGSSRSIPFDRRYDFVFTSISFHHWKCREDGLRNMAKYVSDHGVLAVYEYYRPNLRSFHRVAGKHALTMEDVEKLNIEGFTKKYEIRGEMMRIMFQRDEG | soluble |
| MAHHHHHHSLSGPRVERLEVSAYTVPTDYPESDGTLQWDSTTMILVEAHGGGRKGLGYTYGDVSVGRFVESKLAGVAEGSDALSPPAVWARMQAAIRNAGRPGVGAMAVSAVDIALWDLKARLLGLPLADALPRFHAEVPVYGSGGFTSYPLRRLQEQLGGWAAAGIPRVKMKVGREPEKDPERVRAAREAIGESVELMVDANGAYTRKQALYWAGAFAREAGISYLEEPVSSEDREGLRLLRDRGPGGVAIAAGEYEWTLPQLHDLAGCVDILQADVTRCGGITGLLRVDGICRGHQIPFSAHCAPAVSAHACCAVESLLHLEYFHDHARVERLLFDGTLDPEGGSLRPDPDRPGLGLELKRSEAGKYAA | soluble |
| MAHLLQLHHVSKSYREKKAIDDLTITIPNGKIIGLLGPNGSGKTTLIKLINGLLQPNKGEIVIDGYRPCVETKKIISYLPDTTYLNENMRIKDMLEFFSDFYSDFDKSKATSLLRDLELDPEDRFKTLSKGNKEKVQLILVMSRKARLYVLDEPIGGVDPAARDYILKTIINSYCENASVIISTHLISDIEPILDEVIFLKQGRLFLSGNADDLRQEYQQSIDSLFRETYKV | not soluble |
| MAIETEDIKYEESFIKNTRGFKLFTCRWLPTNREPRALVFLCHGYGMECSITMNSTARRLVKAGFAVYGMDYEGHGKSDGLSAYISNFDRLVDDVSTHYTAICEREENKWKMRFMLGESMGGAVVLLLGRKNPDFWDGAILVAPMCKIAEEMKPSPFVISILTKLISIIPKWKIIPSQDIIEISYKEPEIRKQVRENPLCSKGRPRLKTAYELLRISNDLEKRLQEVSLPFLVLHGDDDKVTDKAVSQELYKVALSADKTLKLYPGMWHGLLTGETPENIEIVFADVISWLEKRSDYGNDRFESELKQRNDRLNFKK | soluble |
| MAIFHLDFKIVKRSEGKSSVAKAAYHARCKITDERTGDTYDYSRRDDLYGHFILAPANAPEHIVKDSTSLWNEVERVERQNNGQTARYFDVSIPTELNNDEKKKLVLEYCQKNFVDKGMIADIAFHDLDSDNPHAHVMLTLKTIGPEGFGKKERSWNDRKMSVLWRESWASMANSYLATAGSSERIDHRSLQAQHEEALEKAAVALDNEEKALWLAKAAETNRPPMKRIHSAKWRSKAAQEQRAAEQTVRDAAKLEAVEVYKTFSELDLEIVVDVRSFTISVLPKPEEIVIPDFSTREKHQSIVSPVTSRRPAVKSYRAPNKATKVGMRGEGTPVLVAPEPNKSTKLKTSSSKKTRAMNRAPMHSRKQVKPHQNGLFKRLTTYMVCLFKEKFIWSKKKPIPVDAEHDKRIADNYVFDEIQGIYVSRAEYERRARFNNGTYSPAPDEVRRFPHRTKEEQHKVDDEPDYDPSSTPVPIISRKHLSLKPLEHHHHHH | not soluble |
| MAINNSAQKFIARNRAPRVQIEYDVEIYGSEKKIELPFVMAVLADLAGKPREELPPVTDRKFLDIDIDNFNERMKAIAPRVAFAVPNTLTGEGQLMVDITLENMDDFSPAQIARKVDALNQLLEARTQLANLQTYMDGKAGAENLVNKLLQDPTLLKTLANAPKSAATQQDVSADNESAE | not soluble |
| MAINPFFTLVQRPVQSIEMAPPKPSAKGAKKAAKTVTKPKDGKKRRHARKESYSVYIYRVLKQVHPDTGVSSKAMSIMNSFVNDVFERIAAEASRLAHYNKRSTISSREIQTAVRLILPGELAKHAVSEGTKAVTKYTSSK | not soluble |
| MAIQVKASLRKNPQDKKAAGKYYAQVVLAPEMTQRQIIDQIADRCTVTGSDVKAVLDALMTVIKRNLANGSPIRLGDLGSFRPSVSGIGSENVDKFTASNVKKARVIYVPSAEIKEAVAMYAFSKVGATAEGGNTEKPGGGDIDNPGGGDEEAPDPTVLEHHHHHH | soluble |
| MAIRLPAEWEEQDGVLIAWPHPGSDWYPWLRLVEPVFAQIVREITRFETALVVAADGERTAALLEAVGARMERVAIVELPTNDTWARDFGPVTVERDGRPVLLDFGFNGWGLKFAADRDNLVTRRLRHLGIFGDIPAEMVGLVLEGGSIESDGRGTVLTTAECLLNPNRNPHLSRAEIEEALARYLGTERVLWLENGFLAGDDTDSHVDTLARLAPDDTIVYVRCDDATDEHYAALFMMEKELANLRTREGSPYRLIPLPWPRACFDHEGQRLPATYANFLVINGAVLVPVYDDPADEAALEAIGRAFPGREIVGIDCRPLIIQHGSLHCVTMQLPKGVLPCPNLEHHHHHH | soluble |
| MAIRLYKLAVALGVFIVSAPAFSHGHHSHGKPLTEVEQKAANGVFDDANVQNRTLSDWDGVWQSVYPLLQSGKLDPVFQKKADADKTKTFAEIKDYYHKGYATDIEMIGIEDGIVEFHRNNETTSCKYDYDGYKILTYKSGKKGVRYLFECKDPESKAPKYIQFSDHIIAPRKSSHFHIFMGNDSQQSLLNEMENWPTYYPYQLSSEEVVEEMMSH | soluble |
| MAITRESKNGEEFVGEVTFYEGVNMNVVVNFFTGLDHYEYAKLRFAHTAHTPPLIRASSTSASASASTSTSSSRPKKHYLEKNMEHLLKKLDILAFKQTIIESRSPTSDSIHHQDFVSNTDTAEYDDDDTKFF | not soluble |
| MAIVGQPNLRELFDDAPTPHIAHPPHTHRRDFYVATDGSYASDGAGLGVIIETRDGSRVLRRSVPDTAPDNNVAEYRALHLGLDTLAARTPPDASVGVLVDHDALAGDVNSAVLATQRRDYQPVRAFSAPRDARHHWRGIRARVTGFAEIRAAQVDSSRNPAHALANEPSQYAHVNDEPDRCLLPDATTSTEPQIPPPSRSDRPAGDLEHHHHHH | not soluble |
| MAKDIYKTFKRSVSGIVGGNNINGEGSSSPSTSAPQVKYRGGTGRTWIHPPDYLINGHVEYVARFLGCVETPKANGSDVAREAIHAIRFQRDLKRSEQTRETAKLQKVEIRISIDNVIIADIKTKAPMYTFPLGRISFCADDKDDKRMFSFIARAEGASGKPSCYAFTSEKLAEDITLTIGEAFDLAYKRFLDKNRTSLENQKQIYILKKKIVELETENQVLIERLAEALRANSKADYENTGPPIYPGLGPPALPLSPMPQGPPPNIPPSSIYSMPRANDLPPTEMAPTLPQISTSSNGASPSVSPASTSPSGPAPSIPPPRPPALAPPPPVAPRRNPVVSPKNSTAGLLDGLELGSAEPAKKAPSNIFDDSFDPRAGEKKSTAAEYNPFGADFLSGIQNGKEAPPSASAELLASEAIARLPKPESSSVPPKKTAAEYDAMINEVEKKLAAMSSGSFEFGQLQTGDLGGIEGESDYGTPSDRLNPKMMNLKQ | not soluble |
| MAKGIPVLEIFGPTIQGEGMVIGQKTMFVRTAGCDYSCSWCDSAFTWDGSAKKDIRWMTAEEIFAELKDIGGDAFSHVTISGGNPALLKQLDAFIELLKENNIRAALETQGTVYQDWFTLIDDLTISPKPPSSKMVTNFQKLDHILTSLQENDRQHAVSLKVVIFNDEDLEFAKTVHKRYPGIPFYLQVGNDDVHTTDDQSLIAHLLGKYEALVDKVAVDAELNLVRVLPQLHTLLWGNKRGV | not soluble |
| MAKKEEYVRKPDWLKIKLNTNETYTGLKKMMREKNLHTVCEEAKCPNIHECWAVRKTATFMILGDVCTRACRFCAVKTGLPNELDLQEPERVAESVEIMGLKHAVITAVARDDLKDGGAGVFAETVRAVRRRNPFCTIEVLPSDMMGNDDNLKTLMDARPNILNHNIETVRRLTPRVRARATYERSLEFLRRAKEMQPDIPTKSSLMIGLGETKDEIIETMDDLRANNVDIMTIGQYLQPTKKHLKVQKYYHPDEFAELKEIALSKGFSHCEAGPLVRSSYHADEQVNEAQVREEARKAAAKS | not soluble |
| MAKLITLGEILIEFNALSPGPLRHVSYFEKHVAGSEANYCVAFIKQGNECGIIAKVGDDEFGYNAIEWLRGQGVDVSHMKIDPSAPTGIFFIQRHYPVPLKSESIYYRKGSAGSKLSPEDVDEEYVKSADLVHSSGITLAISSTAKEAVYKAFEIASNRSFDTNIRLKLWSAEEAKREILKLLSKFHLKFLITDTDDSKIILGESDPDKAAKAFSDYAEIIVMKLGPKGAIVYYDGKKYYSSGYQVPVEDVTGAGDALGGTFLSLYYKGFEMEKALDYAIVASTLNVMIRGDQENLPTTKDIETFLREMKK | soluble |
| MAKNKKLFEYLSQHAETISSTWYETIEETDPNSIYASTDPVVIHNLKSQNLAFNYKINRIFIDDEDVYLPILKEWAFEVTQDQEHLKTPIHYIIREFVRVRDLYVSYVKEFVHLNQNTVKSEEAEDLYHALIKAFDLVIHIFIEEMYKNTSLQLQAQKDMITELSAPVIVLFHSVGLLPLIGDIDTVRAKLIMENTLHQCAKKKVTQLYIDLSGVAVIDTMVAHQLFSLIEALRLIGVSSTLSGIRPEIAQTAVQLGLSFEGISLRSTLASAIASDLKLKKV | not soluble |
| MAKTITKDSFFHSRLQQFVANSLFPAGAGDWYKNKGYGKKGEVDDEAPFRDFVEKQKTDKKSHYYKEFQGLDLSLKKVKTKLVSGESCQLEVMKCQPESNEPKKPGTGKHIVYFPGANTYYQACFRDISTACKETGATVHAFNFPGTGLSSGKVREANDLINAGISVVSSLIKQGVHPDDIILQGDCYGASIALEVKKQLEDQADIKVRAIMNNVFKSFKAAVCDMITQSPWLPNILKSIVKRLLEFTGWHVTPGKKYKHADPYQCHIQHLGDQTLESSTLSGKVSKYHHEIQTGQTKSQKRAPITDTCPEEYRKDRDELDRKHYVRVKESAKERLASKFGVDKFGRVNAHFADLCELEMLDGQSVYQGFVNDYIARSNAYIEKHPQKGIKEVQDDLRKLHYLQPADSIEITEDEAQDFNTVVDLITEEQQLRHDRFNDNTIGKSISM | not soluble |
| MAKVSLEKDKIKFLLVEGVHQKALESLRAAGYTNIEFHKGALDDEQLKESIRDAHFIGLRSRTHLTEDVINAAEKLVAIGAFAIGTNQVDLDAAAKRGIPVFNAPFSNTRSVAELVIGELLLLLRGVPEANAKAHRGVWNKLAAGSFEARGKKLGIIGYGHIGTQLGILAESLGMYVYFYDIENKLPLGNATQVQHLSDLLNMSDVVSLHVPENPSTKNMMGAKEISLMKPGSLLINASRGTVVDIPALADALASKHLAGAAIDVFPTEPATNSDPFTSPLAEFDNVLLTPHIGGSTQEAQENIGLEVAGKLIKYSDNGSTLSAVNFPEVSLPLHVGRRLMHIHENRPGVLTALNKIFAEQGVNIAAQYLQTSAQMGYVVIDIEADEDVAEKALQAMKAIPGTIRARLLY | soluble |
| MAKVVVLGAGVSGHTCASFLKKKLGKQHEVVVISPNSYYQWIPSNIWVGVGHMTIDDVRFKLKKVYDRWGIDYKQAKAVSIHPEGDANISKGYVTIEYTDEEHAGYTETVDYDYLVNATGPKLNFEATEGLGPDKNSLSVCTYSHAAHAWEELQKSIEKMKNGQKQRFLIGTGHAMATCQGAAFEYILNVAHEISRRGLSHMAELTWISNEYELGDFGMGGAFIKRGGYITPTKVFTESLLAEYGIKWIRRAGVYKVEPGVAHYETLDGEMLSQEFDFAMLIPSFSGVGLTAFDKSGNDITDKMFLPNKFMKVDADYTAKPFGEWGANDWPTIYQTPMYSNIYAAGIAFAPPHSISKPMTSVNGRQIFPTPPRTGMPSGVIGKIIALNISEQIKGNHKEHHHKASMARMGAACIVSAGFGSFDGLGASMTVFPIVPDWEKYPEWGRDMTYSVGEVGLAGHWLKFMLHYLFFHKAKGYPFWYLIPELEHHHHHH | not soluble |
